Experimental data as given in PMC5052687, “The structural basis for CD36 binding by the malaria parasite” (Nature Communications, 2016).

B1: MCvar1 PfEMP1 CIDRα2.8 domain (residues 576-745, C626S) (domain or fragment)
chain: EDKIMSYNAFFWMWVHDMLIDSIKWRDEHGRCINKDKGKTCIKGCNKKCISFQKWVEQKKTEWGKIKDHFRKQKDIPKDWTHDDFLQTLLMKDLLLEIIQDTYGDANEIKRIEALLEQAGVGGIDFAALAGLYTKGFVAEKDTTIDKLLQHEQKEADKCLKTHTDDTCPP
notes: PfEMP1 MCvar1, Plasmodium falciparum, CIDRα2.8 domain, residues 576-745; Synthetic codon-optimised cDNA (GeneArt) cloned into pHLsec-8H; also called MCvar1 CIDRα2.8; source: HEK293 cells, secreted, purified (TALON, size-exclusion chromatography); coexpressed with CD36 with kifunensine for the structure and SEC-MALS, expressed individually for SPR
B2: MCvar1 PfEMP1 CIDRα2.8 domain (residues 576-745, C626S) (domain or fragment)
chain: EDKIMSYNAFFWMWVHDMLIDSIKWRDEHGRCINKDKGKTCIKGCNKKCISFQKWVEQKKTEWGKIKDHFRKQKDIPKDWTHDDFLQTLLMKDLLLEIIQDTYGDANEIKRIEALLEQAGVGGIDFAALAGLYTKGFVAEKDTTIDKLLQHEQKEADKCLKTHTDDTCPP
notes: CIDRα2.8 domain of the MCvar1 PfEMP1, Plasmodium falciparum; the reverse cloning primer (D1:p11) ends at ...DTCPP; also called MCvar1 CIDRα2.8; MC179 CIDRα2.8; source: HEK293, secreted, purified (TALON, size-exclusion chromatography); for the crystal co-expressed with CD36 in the presence of kifunensine
B3: MCvar1 CIDRα2.8 domain (residues 576-745, C626S) F660N:Q662T (domain or fragment)
chain: EDKIMSYNAFFWMWVHDMLIDSIKWRDEHGRCINKDKGKTCIKGCNKKCISFQKWVEQKKTEWGKIKDHFRKQKDIPKDWTHDDNLTTLLMKDLLLEIIQDTYGDANEIKRIEALLEQAGVGGIDFAALAGLYTKGFVAEKDTTIDKLLQHEQKEADKCLKTHTDDTCPP
modifications: N-linked glycan at the introduced site on a small fraction of the protein
notes: CIDRα2.8 domain of the MCvar1 PfEMP1, Plasmodium falciparum; Introduces an N-linked glycosylation site into site 1 of the crystal; also called site 1 mutant; site 1; source: HEK293, secreted, purified (TALON, size-exclusion chromatography)
B4: MCvar1 CIDRα2.8 domain (residues 576-745, C626S) E672A (domain or fragment)
chain: EDKIMSYNAFFWMWVHDMLIDSIKWRDEHGRCINKDKGKTCIKGCNKKCISFQKWVEQKKTEWGKIKDHFRKQKDIPKDWTHDDFLQTLLMKDLLLAIIQDTYGDANEIKRIEALLEQAGVGGIDFAALAGLYTKGFVAEKDTTIDKLLQHEQKEADKCLKTHTDDTCPP
notes: CIDRα2.8 domain of the MCvar1 PfEMP1, Plasmodium falciparum; source: HEK293, secreted, purified (TALON, size-exclusion chromatography)
B5: MCvar1 CIDRα2.8 domain (residues 576-745, C626S) Q648A (domain or fragment)
chain: EDKIMSYNAFFWMWVHDMLIDSIKWRDEHGRCINKDKGKTCIKGCNKKCISFQKWVEQKKTEWGKIKDHFRKAKDIPKDWTHDDFLQTLLMKDLLLEIIQDTYGDANEIKRIEALLEQAGVGGIDFAALAGLYTKGFVAEKDTTIDKLLQHEQKEADKCLKTHTDDTCPP
notes: as for B4
B6: MCvar1 CIDRα2.8 domain (residues 576-745, C626S) D680N:N682T (domain or fragment)
chain: EDKIMSYNAFFWMWVHDMLIDSIKWRDEHGRCINKDKGKTCIKGCNKKCISFQKWVEQKKTEWGKIKDHFRKQKDIPKDWTHDDFLQTLLMKDLLLEIIQDTYGNATEIKRIEALLEQAGVGGIDFAALAGLYTKGFVAEKDTTIDKLLQHEQKEADKCLKTHTDDTCPP
modifications: N-linked glycan at the introduced site on the majority of the protein
notes: CIDRα2.8 domain of the MCvar1 PfEMP1, Plasmodium falciparum; Introduces an N-linked glycosylation site into site 2 of the crystal; also called site 2 mutant; site 2; source: HEK293, secreted, purified (TALON, size-exclusion chromatography)
B7: IT4var45 CIDRα2.9 domain (domain or fragment)
chain: PWCGVNGTKGNWTPKNDDDCKPGNEYKNYENTQIPILTGDKTKSEIVERYRKFCKNNGKNGANGREGGVGGSENGAASNSDNATTGYCGTNNNDKDPSLCEKWTCYYKKKEKNDGKKAINFCVLQDDKVGKSQEKSMHYNSFFWDWVYHMLHDSLDWRKQLGRCINKKEETKCIGSCNKKCECFAKWVGHKQQEWEQIKKHFLKQDDIGQETNCDPMVTLEILLDIDELLKNIKDTHANADDIDRIQNMLQQAGFDGGVAALVGRCTEGFVAEKDTTIDKFLEKELQEAEKCLETHKEKC
notes: CIDRα2.9 domain of the PfEMP1 IT4var45, Plasmodium falciparum; also called CIDRα2.9 IT4var45; IT4var45 (α2.9)
B8: MAL6P1.252 CIDRα2.1 domain (domain or fragment)
chain: PWCGVKPGGPPWKDNDIDSCGKKEISFSDKDTTDISILSTDRAKKNILQKLENFCRDTEHINHDIWKCHYENTDNDNCILQNENTGSEKQKIMPFDAFFFLWLTQMLDDSIEWRKKLKTCINNEKPTNCIRGCKKPCECFERWVEQKEEEWISIEKHFDKQRDISEEERYITLEYILNEFFMDKIEKAYGIEKSKELKEKLKSNKGHGIIRDTEHSQDAIKILLEHELEDAKKCTETHNDEKC
notes: CIDRα2.1 domain of the PfEMP1 MAL6P1.252, Plasmodium falciparum; also called CIDRα2.1 MAL6P1.252
B9: HB3var13 CIDRα3.2 domain (domain or fragment)
chain: PLCGVKKEKGTWVRKDSMNDCPRIKLYKPINDKVGTPINFLYSGDGQTEIAEKLKKFCRTENGSDGSSSARANGASGDKNGGSGSQELYQYWKCYQIGDLQKVREGEDDEDDGQYDQEVENAGGLCILQKTNGKENVNKQKTSHEIQKTFNPFFYYWVVHMLKDSIHWRTEKIKSCINNTNELKACKNNKKCNSDCDCFKRWVKQKGKEWGQIKVHFKTQDIRGKVVNGNTVVSFFLDHDELLEGVLDKGLLLESLQEAYGNAEDIKHIKKLLQETDVVGGGEHKTTIDFLLKEELNEAEECLKKQKDNEC
notes: CIDRα3.2 domain of the PfEMP1 HB3var13, Plasmodium falciparum; also called CIDRα3.2 HB3var13; HB3var13 (α3.2)
B10: IT4var24 CIDRα2.2 domain (domain or fragment)
chain: PLCGVNGPKGNWTDIEDKECTLVEKKKYDSNNTTNIDILTADKSQKNILQKYNKFCKNGANDEKSATPTANGGGQIKNWQCYYDESKESGQNNNCILGKWEDFTGNEDVTSYNVFFYNSIIEMLNDSIEWKDKLNICINNKTGKCRKVCKNPCECYKRWIEKKKTELEKIKDHFRKQKDIGDAAQREMTLNITLNNNFLNDIKDAYPVKQQLQKIEERLKDKMQEDFIFERTKTSIDKFLQEEEQFAEKCIEKHKC
notes: CIDRα2.2 domain of the PfEMP1 IT4var24, Plasmodium falciparum; also called CIDRα2.2 IT4var24; IT4var24 (α2.2)
B11: IT4var33 CIDRα2.4 domain (domain or fragment)
chain: PLCGLGMQEPPWNPKKDTDCEDRGIKTFDDRNSTPINLLVKDVTGTSIVEKLGGLCGNGAKKNIQTWKCRFESSQNYYCVLQNDKKNTPQQEIESFNSLFWHWITEMLKDSIDWRKEHENCINNNNTCKKGCKSKCECFEKWVKRMKEEWKQVLEVYDKQPDFKEVFTPYFTLGYLLKEYFTKIKAPYEEVESVQEFIKEMEQIIDENSNNINATKENNSITKFLQHEEGIATECKKTHNEEKC
notes: CIDRα2.4 domain of the PfEMP1 IT4var33, Plasmodium falciparum; also called CIDRα2.4 IT4var33; IT4var33 (α2.4)
B12: IT4var61 CIDRα2.7 domain (domain or fragment)
chain: PWCGVKRNGGGWKAKSDGECAKEKKTYKKKNITEIPVLTPDKEKHNILQKYENFCKNSDGNNGDQIKNWQCYYEEKDESDNDGDSNICVLQNENIGKKEEKSMPYHPFFWKWVTEMLIDSMYWRKELKRCINKETKACKNGCKNNCDCYKRWVEEKKKEWGQIKTHFNTQEDMREDIGENTDPGIILAALLNIEDLFENIKDTYGDVKEIKDINQMLEKENEENEGTAGADSKKKNTIDLMINHEQKDAQKCVTNNPDKDC
notes: CIDRα2.7 domain of the PfEMP1 IT4var61, Plasmodium falciparum; also called CIDRα2.7 IT4var61; IT4var61 (α2.7)
B13: IT4var14 CIDRα5 domain (domain or fragment)
chain: PWCGIEEQKDGKWKRINDHSACKEEELYTPKENAKYTKINVLTSGEGHEDIAKRLKEFCTKTQNGGGGSDDCGGNSDSSLCEPWQCYQPDQLEKVGGGEVDDKLKGAGGLCIFEKMKGEKKVKKQKTFNNFFNFWVAHVLKDSIDWRTQLTKCLSEDKLKKCEKGCKSNCECFKKWIEKKEKEWIKVKDQFNKQTDFLEWKHYLVLETILENYYFENIQKAYGDLKSIQEMKKMIKENKQNKNRTKDDEDALDVLFDHEKEEAEDCLDIHE
notes: CIDRα5 domain of the PfEMP1 IT4var14, Plasmodium falciparum; also called CIDRα5 IT4var14; IT4var14 (α5)
B14: IT4var12 CIDRα6 domain (domain or fragment)
chain: PWCGLKKQADGTWKRLYENDPQCPIKPKYEPPKGEEPTEIDVLYTGKENKDIIVKLREFCKTDGNTGFKNEEWNCYYQVGNDKCVLENGEELGGEKKVKDYDNFLMFWVAHMLKDSIEWRSKLSNCLKSDKKTCIKKCNDNCKCYEKWIGKKKVEWTQIKKHFDKQTDFQGWGRYFVLETVLEGDQFFTDITKAYGDAREIVHIQEMLQKKKEQVLHEDASNMKTIIDELLDHELKEAKQCIVNHKDNNC
notes: CIDRα6 domain of the PfEMP1 IT4var12, Plasmodium falciparum; also called CIDRα6 IT4var12; IT4var12 (α6)
B15: IT4var15 CIDRα3.5 domain (domain or fragment)
chain: PGCGVELIGNEWKEKNKGECKGGKRYNIPKGTKHNVIPVLSFGDEHKEIIEKIEQFCAESNSDSSKLTEQWKCYYGDKEYEVCTLENRNKSEEDPEEIQKTFHNFFYFWIRHLLNDSIEWRDKINNCIEKAKEGKCKNECKTDCGCFQRWIGKKKEEWGEIKKHFKTQDGFSIFGNNYDFVLENVLNIDELFQDITEAYGNSQKIQGIKDTLAKKKTQAADDATEQKNTIDLLFEYDSEEAEKCKKIQEEC
notes: CIDRα3.5 domain of the PfEMP1 IT4var15, Plasmodium falciparum; also called CIDRα3.5 IT4var15; IT4var15 (α3.5)
B16: IT4var30 CIDRα2.10 domain (domain or fragment)
chain: PWCGIEEQKVDGKWKAKNNGECAKVENKIYDPKKTTTIEILTGDNEKFGIYEKYNKFCANGKNGVTSGAPDTAPGKNGNQIVTWQCYYDKKKRSGQNNDNCVEGTWEKFTGKQTVKSYNVFFWDWVYHMLHDSLEWRERLNSCINNAKSQNCKNNKCNRECGCFAKWVVKKKDEWDKIKDHFNKQENIGQNVGFIEFNHYGVLEGVLDKDELLKNIKDTHADAKDIERIDKMLQQAGVVGGGRGGENNTIIDKFLQEEERFAKDCQQKQEEC
notes: CIDRα2.10 domain of the PfEMP1 IT4var30, Plasmodium falciparum; also called CIDRα2.10 IT4var30; IT4var30 (α2.10)

Target: T1, human CD36 ectodomain (residues 35-439) (human, UniProt P16671 35-439)
T1 construct: CD36, human, ectodomain residues 35-439; Cloned into pHLsec-8H (secretion vector); For crystallisation the complex was deglycosylated (endoglycosidase F1) and treated with carboxypeptidase Y in situ
T1 sequence (P16671 35-439): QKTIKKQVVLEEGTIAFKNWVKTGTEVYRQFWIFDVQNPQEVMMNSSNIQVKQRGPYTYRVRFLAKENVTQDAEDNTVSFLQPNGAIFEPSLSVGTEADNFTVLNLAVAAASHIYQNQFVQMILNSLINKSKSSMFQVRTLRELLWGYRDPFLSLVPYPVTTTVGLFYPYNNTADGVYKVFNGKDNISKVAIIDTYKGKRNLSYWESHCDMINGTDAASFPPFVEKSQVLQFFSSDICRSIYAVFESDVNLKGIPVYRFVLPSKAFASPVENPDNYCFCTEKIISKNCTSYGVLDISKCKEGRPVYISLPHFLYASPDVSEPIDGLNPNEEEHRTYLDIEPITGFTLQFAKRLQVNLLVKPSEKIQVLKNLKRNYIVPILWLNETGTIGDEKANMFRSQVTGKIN
Assay: SEC-MALS; coexpressed and purified CD36:MCvar1 CIDRα2.8 complex at 1 mg/ml, Superdex S200 10/300 GL, 10 mM HEPES pH 7.5, 0.15 M NaCl
Conditions: both partners purified

B1 was tested. Which “stoichiometry N” value did it give?
Its value is 1.

Target: T2, human CD36 ectodomain (residues 35-439), C-terminal 8xHis and biotinylated BAP tag (human, UniProt P16671 35-439, biotin on the BAP tag (in vitro, BirA ligase))
T2 construct: CD36, human, ectodomain residues 35-439; Construct for SPR; vector pHLsec-8H; also called CD36 wild-type; w.t; source: HEK293T, purified (TALON, size-exclusion chromatography), biotinylated in vitro with BirA; not shown: BAP tag, C-terminal, kept
T2 sequence (P16671 35-439): as above
Assay: SPR; biotinylated CD36 (wild type or F153A) immobilised on a CAPture chip to ~700 RU; CIDRα domains as analytes, two-fold dilutions from 400 nM (Supplementary Figure 10: 400 nM only), 240 s injection, 300 s dissociation; 25 °C, 20 mM HEPES pH 7.5, 0.15 M NaCl, 0.005% Tween20; affinities from equilibrium binding, one site-binding model
Conditions: both partners purified

With B2 as the binder, how does the Kd read?
The Kd was 12 nM.

B3 was tested. Which Kd did it give?
Its Kd is 306 nM.

For B4, which Kd is on record?
Its Kd is 86 nM.

B5 was tested. Which Kd did it give?
The Kd was 362 nM.

How did the Kd turn out when B6 was run?
Its Kd is 18 nM.

Target: T2, human CD36 ectodomain (residues …)
Assay: as above
Conditions: both partners purified
Remark: another data set of the same source

Which Kd does the source give for B7 here?
Its Kd is 23 nM.

B8 was tested. Which Kd did it give?
The Kd was 3.6 nM.

With B9 as the binder, how does the Kd read?
The Kd was 12.3 nM.

B10 was tested. Which Kd did it give?
The Kd was 15.8 nM.

With B11 as the binder, how does the Kd read?
The Kd was 3.3 nM.

For B12, which Kd is on record?
The Kd was 72 nM.

Which Kd does the source give for B13 here?
The Kd was 180 nM.

Which Kd does the source give for B14 here?
The Kd was 6.6 nM.

Which Kd does the source give for B15 here?
Its Kd is 3 nM.

For B16, which Kd is on record?
Its Kd is 55 nM.
